Here are results for 6 molecules from patent publication US12129493B2, “Host cells and methods useful for producing unnatural terpenoids using a novel artificial metalloenzyme” (The Regents of the University of California, priority 2020, dated 2024).

Several values for one entry are separate records, joined by “and”; a condition that tells them apart may be missing. Equal entries are not always repeated.

Data set [1] has as its system BL21(DE3) cells. Kind of data set: Cytotoxicity of Ir(Me)MPIX and cyclopropyl limonene, cell growth by OD600. How it is done: 10. […] Individual colonies from freshly transformed plates (incubated at 30° C.) were inoculated into 2 mL M9-rich media supplemented with appropriate antibiotics. A 1:100 dilution of overnight cultures into 300 μL M9-rich media was performed in a 48-well plate. […] The OD600 values were recorded by a plate reader (F200 or F200pro, Tecan) set at 30° C.
Cyclopropyl limonene; BL21(DE3) cells co-transformed with pHug21 (coding for HUG system) and pJHA110 (coding for CYP119 mutant) were grown and cultivated as described above. The stock solution of cyclopropyl limonene in ethanol was added to the cell culture to give final concentration of 0, 0.2, 1, 5, 25 mg/L cyclopropyl limonene and 1% (v/v) ethanol. The OD600 values were recorded by a plate reader (F200 or F200pro, Tecan) set at 30° C.

Data set [2] has as its system E. coli BL21(DE3) cells. Kind of data set: Evaluation of the effect of Ir(Me)MPIX and cyclopropyl limonene on cell growth (OD600). Conditions: 0, 0.2, 1, 5, 25 mg/L cyclopropyl limonene, 1% (v/v) ethanol, 30° C. In kind it is cell-based, Escherichia coli.
The format of data set [3] is cell-based, E. coli. The settings on record: whole cells harboring Ir-CYP119 mutants, average of three biological repeats.
Data set [4] can be described thus: Cyclopropanation of (−)-limonene by Ir-CYP119 reconstituted in vitro or free cofactor. The format is biochemical. Conditions: Ir-CYP119 mutants reconstituted in vitro, average of two replicates. The procedure: 12. […] The buffer of the protein solution was subsequently exchanged to TRIS buffer (20 mM, pH 7.5) using a NAP-10 column (GE Healthcare). […] To the reaction vial, 10 μL of 0.125 M stock solution of limonene in EtOH was added. The reaction vial was sealed with a cap containing a septum. The syringes of a multichannel syringe pump were loaded with a stock solution of EDA in DMSO (20 μL of 0.25 M solution of EDA in DMSO), and the EDA solution was added to the reaction over 1.5 h. The reaction was quenched upon the conclusion of the addition of EDA by adding 100 μL of 2 N HCl and extracted with 1 mL dodecane stock solution (0.1% (v/v) in ethyl acetate). The organic layer was then transferred to a separate vial for GC analysis.

The target in data set [5] is T1, CYP119 (Sulfolobus acidocaldarius, UniProt Q55080, C317G/L155W/T213G/V254L).
T1 construct: made in house; host or cells: E. coli BL21(DE3), co-transformed with pHug21 (HUG) or pBbS5a (RFP control)
The data set can be described thus: Fe and Ir content of CYP119 purified from HUG/CYP119 E. coli (700 mL culture). The settings on record: 0.2 mg/L Ir(Me)MPIX. In kind it is cell-based. How it is done:
[…] Individual colonies from freshly transformed plates were inoculated into 4 mL M9-rich media supplemented with 100 μg/mL carbenicillin and 25 μg/mL kanamycin. The cultures were grown overnight at 37° C. and 200 rpm. In a 500 mL Erlenmeyer flask, 100 mL of M9-rich media was inoculated with 1 mL of overnight starter culture and incubated at 37° C. and 200 rpm to an OD600 of 0.7˜0.8. […] Upon induction, the incubation temperature was reduced to 30° C., and expressions were allowed to continue for 18 h at 200 rpm. Cells were harvested by centrifugation and stored at −20° C. until purification.
(§1) Cell debris was removed by centrifugation (10000 rpm, 45 min, 4° C.). The supernatants were incubated with Ni-NTA agarose (50% suspension, 4 mL) on a tube rotator (15 min, 4° C., 20 rpm) and poured into glass frits (coarse, 50 mL). The resin was washed (3×35 mL) with Ni-NTA lysis buffer (50 mM NaPi, 250 mM NaCl, 10 mM Imidazole, pH 8.0). The desired protein was eluded with 15 mL Ni-NTA elusion buffer (50 mM NaPi, 250 mM NaCl, 250 mM Imidazole, pH 8.0) and concentrated to 1 mL with a 30 kDa molecular weight cut-off Amicon centrifugal filtration device (EMD Millipore).
(§2) (c) ICP-MS analysis; Cone. HNO3 was added to each sample (1 mL) in to make a final concentration of 4% (v/v). After microwave digestion (140° C., 30 min), the samples were analyzed by ICP-MS (Elemental Analysis Core, Oregon Health & Science University).

For data set [6], the target named is T1, CYP119. The data set can be described thus: ICP-MS measurement of CYP119 purified from E. coli co-expressing heme transport system (100 mL culture). Conditions: 0.1 μM Ir(Me)MPIX, single replicates. In kind it is cell-based. The procedure:
(b) Protein purification (100 mL culture); A plasmid containing CYP119 mutant (pJHA110) was co-transformed with a plasmid (pHug21) encoding the heme transport system HUG, or an empty vector backbone (pBbS5a) into chemically competent BL21(DE3) (NEB) cells. Individual colonies from freshly transformed plates were inoculated into 4 mL M9-rich media supplemented with 100 μg/mL carbenicillin and 25 μg/mL kanamycin. The cultures were grown overnight at 37° C. and 200 rpm. In a 500 mL Erlenmeyer flask, 100 mL of M9-rich media was inoculated with 1 mL of overnight starter culture and incubated at 37° C. and 200 rpm to an OD600 of 0.7˜0.8. […] Upon induction, the incubation temperature was reduced to 30° C., and expressions were allowed to continue for 18 h at 200 rpm. Cells were harvested by centrifugation and stored at −20° C. until purification.
as §1, §2

As for `CCOC(=O)[C@H]1C[C@@]1(C)[C@@H]1CC=C(C)CC1` [cyclopropyl limonene], the “effect on cell growth” value in data set [1] (BL21(DE3) with pHug21 and pJHA110, 0-25 mg/L) is “little effect”. Further, in data set [1] (concentration range relevant for the study), the “inhibition of cell growth” value is “did not inhibit cell growth”. The “effect on growth of BL21(DE3) cells co-transformed with pHug21 and pJHA110 (encoding CYP119)” value in data set [2] is recorded as “little effect on the growth”.

B1: P/256W: CYP119 mutant (C317G, T213G, V254L, L155W, R256W) (protein, UniProt Q55080 1-368, looked up, variant C317G T213G V254L L155W R256W)
Cytochrome P450 119: MYDWFSEMRKKDPVYYDGNIWQVFSYRYTKEVLNNFSKFSSDLTGYHERLEDLRNGKIRFDIPTRYTMLTSDPPLHDELRSMSADIFSPQKLQTLETFIRETTRSLLDSIDPREDDIVKKLAVPLPIIVISKILGLPIEDKEKFKEWSDLVAFRWGKPGEIFELGKKYLELIGYVKDHLNSGTEVVSRVVNSNLSDIEKLGYIILLLIAGNEGTTNLISNSVIDFTRFNLWQRIREENLYLKAIEEALRYSPPLMWTVRKTKERVKLGDQTIEEGEYVRVWIASANRDEEVFHDGEKFIPDRNPNPHLSFGSGIHLGLGAPLARLEARIAIEEFSKRFRHIEILDTEKVPNEVLNGYKRLVVRLKSNE
For the molecule B1, the “in vivo diastereoselectivity (P2/Ptotal)” value in data set [3] stood at 63%. In addition, the “in vitro diastereoselectivity (P2/Ptotal)” value in data set [4] is listed as 48%.

B2: P (C317G, T213G, V254L, L155W): parent CYP119 mutant (C317G, T213G, V254L, L155W) (protein)
chain: MYDWFSEMRKKDPVYYDGNIWQVFSYRYTKEVLNNFSKFSSDLTGYHERLEDLRNGKIRFDIPTRYTMLTSDPPLHDELRSMSADIFSPQKLQTLETFIRETTRSLLDSIDPREDDIVKKLAVPLPIIVISKILGLPIEDKEKFKEWSDLVAFRWGKPGEIFELGKKYLELIGYVKDHLNSGTEVVSRVVNSNLSDIEKLGYIILLLIAGNEGTTNLISNSVIDFTRFNLWQRIREENLYLKAIEEALRYSPPLMRTVRKTKERVKLGDQTIEEGEYVRVWIASANRDEEVFHDGEKFIPDRNPNPHLSFGSGIHLGLGAPLARLEARIAIEEFSKRFRHIEILDTEKVPNEVLNGYKRLVVRLKSNE
B2: in data set [3], the “in vivo diastereoselectivity (P2/Ptotal)” value was 53%. The “in vitro diastereoselectivity (P2/Ptotal)” value in data set [4] was found to be 20%.

B3: HUG/CYP119: CYP119 purified from E. coli transformed with pHug21 (HUG system) and pJHA110 (protein, UniProt Q55080 1-368, looked up)
Cytochrome P450 119: MYDWFSEMRKKDPVYYDGNIWQVFSYRYTKEVLNNFSKFSSDLTGYHERLEDLRNGKIRFDIPTRYTMLTSDPPLHDELRSMSADIFSPQKLQTLETFIRETTRSLLDSIDPREDDIVKKLAVPLPIIVISKILGLPIEDKEKFKEWSDLVAFRLGKPGEIFELGKKYLELIGYVKDHLNSGTEVVSRVVNSNLSDIEKLGYIILLLIAGNETTTNLISNSVIDFTRFNLWQRIREENLYLKAIEEALRYSPPVMRTVRKTKERVKLGDQTIEEGEYVRVWIASANRDEEVFHDGEKFIPDRNPNPHLSFGSGIHLCLGAPLARLEARIAIEEFSKRFRHIEILDTEKVPNEVLNGYKRLVVRLKSNE
On to B3, for which, in data set [5], the “Fe, total amount present in the purified protein” value is 0.044 µmol and 0.031 µmol and 0.035 µmol; the “Fe:CYP119 (molar ratio)” value is 12.4% and 8.5% and 9.1%; the “Ir, total amount present in the purified protein” value (shortened to “Ir, total amount present”) was 0.039 µmol and 0.040 µmol and 0.041 µmol; the “Ir:CYP119 (molar ratio)” value is 11.0% and 11.1% and 10.8%. Moreover, the “Ir, total amount present” value in data set [6] was 3.15 nmol and 3.66 nmol and 3.08 nmol.

B4: RFP/CYP119: CYP119 purified from E. coli transformed with pBbS5a (RFP control) and pJHA110 (protein, UniProt Q55080 1-368, looked up)
Cytochrome P450 119: MYDWFSEMRKKDPVYYDGNIWQVFSYRYTKEVLNNFSKFSSDLTGYHERLEDLRNGKIRFDIPTRYTMLTSDPPLHDELRSMSADIFSPQKLQTLETFIRETTRSLLDSIDPREDDIVKKLAVPLPIIVISKILGLPIEDKEKFKEWSDLVAFRLGKPGEIFELGKKYLELIGYVKDHLNSGTEVVSRVVNSNLSDIEKLGYIILLLIAGNETTTNLISNSVIDFTRFNLWQRIREENLYLKAIEEALRYSPPVMRTVRKTKERVKLGDQTIEEGEYVRVWIASANRDEEVFHDGEKFIPDRNPNPHLSFGSGIHLCLGAPLARLEARIAIEEFSKRFRHIEILDTEKVPNEVLNGYKRLVVRLKSNE
With B4, the “Ir, total amount present” value in data set [6] is 0.66 nmol and 0.59 nmol and 0.62 nmol.

B5: ChuA/Ton/CYP119: CYP119 purified from E. coli transformed with pJHA184 (ChuA and Ton complex) and pJHA110 (protein, UniProt Q55080 1-368, looked up)
Cytochrome P450 119: MYDWFSEMRKKDPVYYDGNIWQVFSYRYTKEVLNNFSKFSSDLTGYHERLEDLRNGKIRFDIPTRYTMLTSDPPLHDELRSMSADIFSPQKLQTLETFIRETTRSLLDSIDPREDDIVKKLAVPLPIIVISKILGLPIEDKEKFKEWSDLVAFRLGKPGEIFELGKKYLELIGYVKDHLNSGTEVVSRVVNSNLSDIEKLGYIILLLIAGNETTTNLISNSVIDFTRFNLWQRIREENLYLKAIEEALRYSPPVMRTVRKTKERVKLGDQTIEEGEYVRVWIASANRDEEVFHDGEKFIPDRNPNPHLSFGSGIHLCLGAPLARLEARIAIEEFSKRFRHIEILDTEKVPNEVLNGYKRLVVRLKSNE
Take B5: the “Ir, total amount present” value in data set [6] is 0.83 nmol and 0.69 nmol and 0.87 nmol.
